Data on 1 molecule can be found in patent US20220153835A1.

Assay [1] addresses LAG-3-huIgG1 Fc fusion protein. The experiment in a line: competition binding assay, LAG-3-Ig on Raji cells.
Assay [2] has as its target LAG-3 expressed on cells (species not stated at the experiment) (human) (UniProt P18627).

Usually IC50 stands for the concentration that gives 50% inhibition. High values mean weaker potency in that assay, low ones greater potency in that assay.

B1: murine anti-LAG-3 mAb BAP050 (antibody, V domains shown)
VH: QIQLVQSGPELKKPGETVKISCKASGFTLTNYGMNWVRQTPGKGLKWMGWINTDTGEPTYADDFKGRFAFSLETSASTASLQINNLKNADTATYFCARNPPYYYGTNNAEAMDYWGQGTAVTVSS
VL: DIQMTQTTSSLSASLGDRVTISCSSSQDISNYLNWYQQKPDGTVKVLIYYTSTLHLGVPSRFSGSGSGTDYSLTISNLELEDIATYYCQQYYNLPWTFGGGTKLEIK
In assay [1], B1 yielded a 50% inhibitory concentration (IC50) of 2.3 nM. For the same molecule, in assay [2], the IFN-γ expression, cells stimulated with CMV peptides (fold increase) came to 1.4; the IFN-γ expression, cells stimulated with Staphylococcal enterotoxin B (SEB) (3 µg/mL) (fold increase) was determined as 1.6; the IFN-γ expression, cells stimulated with anti-CD3 (0.1 µg/mL) (fold increase) amounted to 3.
